{
  "source": "paper PMC6631453",
  "about": "“Set-Up and Validation of a High Throughput Screening Method for Human Monoacylglycerol Lipase (MAGL) Based on a New Red Fluorescent Probe” (Molecules, 2019)",
  "key": {"[1]": {"biological_target": "T1, human recombinant monoacylglycerol lipase (hMAGL) (Homo sapiens, UniProt Q99685)", "T1 construct": "gene MGLL", "T1 sequence (Q99685 1-303)": "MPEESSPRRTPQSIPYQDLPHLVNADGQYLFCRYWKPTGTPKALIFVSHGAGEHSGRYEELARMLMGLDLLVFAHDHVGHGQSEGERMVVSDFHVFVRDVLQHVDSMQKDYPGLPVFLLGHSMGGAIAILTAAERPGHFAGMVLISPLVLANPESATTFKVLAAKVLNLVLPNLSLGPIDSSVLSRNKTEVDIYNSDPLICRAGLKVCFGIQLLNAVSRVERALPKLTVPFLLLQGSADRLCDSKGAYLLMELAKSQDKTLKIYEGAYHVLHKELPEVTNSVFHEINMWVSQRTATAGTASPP", "assay": "fluorogenic hydrolysis at […], normalized to 1c", "format": "biochemical"}, "[2]": {"biological_target": "T1, human recombinant monoacylglycerol lipase (hMAGL)", "assay": "fluorogenic assay with substrate 1c, […] min pre-incubation", "format": "biochemical"}, "purified protein": {"substrate": "CCCCCCCC(=O)Oc1ccc2nc3ccc(=O)cc-3oc2c1", "assay": "purified protein", "format": "biochemical, Homo sapiens"}, "[3]": {"substrate": "CCCCCCC(CCCC)C(=O)Oc1ccc2nc3ccc(=O)cc-3oc2c1", "assay": "fluorogenic hydrolysis kinetics (Km), very low Vmax", "format": "biochemical, Homo sapiens"}, "[4]": {"substrate": "CCCCC(C)C(=O)Oc1ccc2nc3ccc(=O)cc-3oc2c1", "assay": "fluorogenic hydrolysis kinetics (Km)", "format": "biochemical, Homo sapiens"}, "[5]": {"substrate": "CCCCCCCC/C=C\\CCCCCCCC(=O)Oc1ccc2nc3ccc(=O)cc-3oc2c1", "assay": "fluorogenic hydrolysis kinetics (Km)", "format": "biochemical, Homo sapiens"}, "[6]": {"substrate": "CCCCCCCCCCCC(=O)Oc1ccc2nc3ccc(=O)cc-3oc2c1", "assay": "fluorogenic hydrolysis kinetics (Km)", "format": "biochemical, Homo sapiens"}, "[7]": {"substrate": "CCCCC(CC)C(=O)Oc1ccc2nc3ccc(=O)cc-3oc2c1", "assay": "fluorogenic hydrolysis kinetics (Km), low Vmax", "format": "biochemical, Homo sapiens"}},
  "data": [
    {"molecule": "CCCCC/C=C\\C/C=C\\C/C=C\\C/C=C\\CCCC(=O)Oc1ccc2nc3ccc(=O)cc-3oc2c1", "note": "[1g, 7-hydroxyresorufinyl arachidonate]", "values": [
      {"measurement": "fluorogenic hydrolysis at 5 μM, normalized to 1c", "setting": "[1]", "result": "Normalized hydrolysis of different substrates by hMAGL."}
    ]},
    {"molecule": "O=C(Nc1cccc(-c2ccccc2)c1)OC1CCCCC1", "note": "[URB602]", "values": [
      {"measurement": "IC50", "setting": "[2]", "result": 8.1, "unit": "µM"}
    ]},
    {"molecule": "human recombinant monoacylglycerol lipase (hMAGL) (Homo sapiens) (protein) MPEESSPRRTPQSIPYQDLPHLVNADGQYLFCRYWKPTGTPKALIFVSHGAGEHSGRYEELARMLMGLDLLVFAHDHVGHGQSEGERMVVSDFHVFVRDVLQHVDSMQKDYPGLPVFLLGHSMGGAIAILTAAERPGHFAGMVLISPLVLANPESATTFKVLAAKVLNLVLPNLSLGPIDSSVLSRNKTEVDIYNSDPLICRAGLKVCFGIQLLNAVSRVERALPKLTVPFLLLQGSADRLCDSKGAYLLMELAKSQDKTLKIYEGAYHVLHKELPEVTNSVFHEINMWVSQRTATAGTASPP", "values": [
      {"measurement": "Km", "setting": "purified protein", "result": 0.66, "unit": "µM"},
      {"measurement": "Vmax", "setting": "purified protein; catalytic active site near Ser122 (docking only)", "result": 0.106, "unit": "µmol/min/mg"},
      {"measurement": "Km", "setting": "[3]", "result": 1.1, "unit": "µM"},
      {"measurement": "Vmax", "setting": "[3]", "result": 0.00067, "unit": "µmol/min/mg"},
      {"measurement": "Km", "setting": "[4]", "result": 1.09, "unit": "µM"},
      {"measurement": "Vmax", "setting": "[4]", "result": 0.033, "unit": "µmol/min/mg"},
      {"measurement": "Km", "setting": "[5]", "result": 0.42, "unit": "µM"},
      {"measurement": "Vmax", "setting": "[5]", "result": 0.013, "unit": "µmol/min/mg"},
      {"measurement": "Km", "setting": "[6]", "result": 0.31, "unit": "µM"},
      {"measurement": "Vmax", "setting": "[6]", "result": 0.024, "unit": "µmol/min/mg"},
      {"measurement": "Km", "setting": "[7]", "result": 2.8, "unit": "µM"},
      {"measurement": "Vmax", "setting": "[7]", "result": 0.0013, "unit": "µmol/min/mg"}
    ]}
  ]
}
